Measurements taken from patent publication US20260184748A1 (University of Pennsylvania, published 2026).
Where no end group is shown, it is not given here.

Tests used:
Assay in all cases: cell-based or functional assay
CXCR4 = CXCR4 (UniProt P61073 1-352)
AVPR1A = AVPR1A (UniProt P37288 1-418)
CALCRL-RAMP2 = CALCRL-RAMP2 (UniProt Q16602 23-461; O60895 43-175)
HRH4 = HRH4 (UniProt Q9H3N8 1-390)
MCHR1 = MCHR1 (UniProt Q99705 1-353)
OXTR = target: T1, OXTR (UniProt P30559 1-389)
T1 sequence (looked up): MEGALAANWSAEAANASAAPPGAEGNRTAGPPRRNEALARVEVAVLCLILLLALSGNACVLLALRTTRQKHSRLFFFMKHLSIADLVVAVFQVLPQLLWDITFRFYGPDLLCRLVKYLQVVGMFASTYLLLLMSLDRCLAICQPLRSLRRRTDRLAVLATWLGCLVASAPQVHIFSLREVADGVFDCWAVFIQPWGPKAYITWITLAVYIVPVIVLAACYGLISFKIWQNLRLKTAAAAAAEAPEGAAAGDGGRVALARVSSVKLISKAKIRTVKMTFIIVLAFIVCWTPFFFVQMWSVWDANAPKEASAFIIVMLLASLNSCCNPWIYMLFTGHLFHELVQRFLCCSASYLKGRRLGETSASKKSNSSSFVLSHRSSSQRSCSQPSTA

SSTR5 = SSTR5 (UniProt P35346 1-364)
OXER1 = OXER1 (UniProt Q8TDS5 1-384, limits assumed)
GCGR = GCGR (UniProt P47871 26-477)
NMU1R = target: T2, NMU1R (UniProt Q9HB89 1-426, limits assumed)
T2 sequence (looked up): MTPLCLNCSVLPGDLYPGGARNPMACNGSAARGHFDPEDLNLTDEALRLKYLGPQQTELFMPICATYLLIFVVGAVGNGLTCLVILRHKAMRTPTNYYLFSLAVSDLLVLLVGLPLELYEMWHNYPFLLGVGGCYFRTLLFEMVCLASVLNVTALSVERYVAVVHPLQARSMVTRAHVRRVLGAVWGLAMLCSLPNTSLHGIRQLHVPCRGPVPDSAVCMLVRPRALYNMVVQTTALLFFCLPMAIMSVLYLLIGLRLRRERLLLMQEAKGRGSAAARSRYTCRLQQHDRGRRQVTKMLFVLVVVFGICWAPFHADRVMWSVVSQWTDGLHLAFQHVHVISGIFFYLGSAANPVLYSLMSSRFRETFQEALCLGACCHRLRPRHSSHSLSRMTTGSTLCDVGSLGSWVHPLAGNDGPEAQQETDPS

OPRM1 = OPRM1 (UniProt P35372 1-400)
CRHR1 = target: T3, CRHR1 (UniProt P34998 24-415, limits assumed)
T3 sequence (looked up): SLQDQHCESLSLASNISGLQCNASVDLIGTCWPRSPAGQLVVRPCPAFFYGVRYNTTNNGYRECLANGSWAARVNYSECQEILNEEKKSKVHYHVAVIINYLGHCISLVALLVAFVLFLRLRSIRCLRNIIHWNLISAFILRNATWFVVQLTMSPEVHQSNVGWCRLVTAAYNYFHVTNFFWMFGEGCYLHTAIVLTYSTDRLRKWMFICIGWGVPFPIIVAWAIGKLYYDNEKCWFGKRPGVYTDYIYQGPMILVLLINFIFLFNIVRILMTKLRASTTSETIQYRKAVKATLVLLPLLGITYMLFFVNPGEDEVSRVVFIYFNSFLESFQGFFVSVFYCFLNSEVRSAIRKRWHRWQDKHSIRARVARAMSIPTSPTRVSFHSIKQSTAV

EDNRB = target: T4, EDNRB (UniProt P24530 27-442)
T4 sequence (looked up): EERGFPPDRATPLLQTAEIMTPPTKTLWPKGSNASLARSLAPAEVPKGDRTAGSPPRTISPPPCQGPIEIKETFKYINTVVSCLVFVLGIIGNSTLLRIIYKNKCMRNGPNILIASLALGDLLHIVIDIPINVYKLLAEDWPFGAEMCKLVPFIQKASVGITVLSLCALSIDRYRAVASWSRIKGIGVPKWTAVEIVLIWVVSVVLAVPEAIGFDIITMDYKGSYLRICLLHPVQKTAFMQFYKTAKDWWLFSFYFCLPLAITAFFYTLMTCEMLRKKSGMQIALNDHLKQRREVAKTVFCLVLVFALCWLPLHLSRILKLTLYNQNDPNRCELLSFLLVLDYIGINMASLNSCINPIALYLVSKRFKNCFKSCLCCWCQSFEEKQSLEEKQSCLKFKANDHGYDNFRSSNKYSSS

PROKR1 = PROKR1 (UniProt Q8TCW9 1-393)
ADRA2A = target: T5, ADRA2A (UniProt P08913 1-465)
T5 sequence (looked up): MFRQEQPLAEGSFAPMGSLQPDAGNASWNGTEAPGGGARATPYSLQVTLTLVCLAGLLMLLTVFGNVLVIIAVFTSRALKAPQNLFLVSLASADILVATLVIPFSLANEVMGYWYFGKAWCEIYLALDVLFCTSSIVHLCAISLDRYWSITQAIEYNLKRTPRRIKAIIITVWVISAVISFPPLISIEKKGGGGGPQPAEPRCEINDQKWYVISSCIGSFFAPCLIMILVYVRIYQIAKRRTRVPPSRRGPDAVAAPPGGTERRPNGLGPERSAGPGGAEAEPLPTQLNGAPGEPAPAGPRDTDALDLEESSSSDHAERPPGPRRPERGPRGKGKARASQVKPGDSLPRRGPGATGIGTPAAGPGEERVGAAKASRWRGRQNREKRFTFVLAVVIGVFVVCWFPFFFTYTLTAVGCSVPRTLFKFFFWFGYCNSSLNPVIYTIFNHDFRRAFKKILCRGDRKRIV

CALCRL-RAMP2, sequence (Q16602 23-461 limits assumed, chain 1 of 2): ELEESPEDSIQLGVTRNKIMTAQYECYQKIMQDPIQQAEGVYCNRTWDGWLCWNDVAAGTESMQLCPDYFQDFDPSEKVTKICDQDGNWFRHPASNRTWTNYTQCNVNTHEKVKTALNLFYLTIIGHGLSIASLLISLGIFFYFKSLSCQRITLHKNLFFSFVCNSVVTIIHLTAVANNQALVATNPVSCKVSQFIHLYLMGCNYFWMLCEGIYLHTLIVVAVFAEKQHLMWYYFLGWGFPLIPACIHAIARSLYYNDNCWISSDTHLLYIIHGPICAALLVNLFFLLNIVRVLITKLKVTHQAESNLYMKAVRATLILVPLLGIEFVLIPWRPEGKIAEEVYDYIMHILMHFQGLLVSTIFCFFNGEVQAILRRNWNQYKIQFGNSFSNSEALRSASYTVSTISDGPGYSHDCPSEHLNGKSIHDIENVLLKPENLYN
CALCRL-RAMP2, sequence (O60895 43-175 limits assumed, chain 2 of 2): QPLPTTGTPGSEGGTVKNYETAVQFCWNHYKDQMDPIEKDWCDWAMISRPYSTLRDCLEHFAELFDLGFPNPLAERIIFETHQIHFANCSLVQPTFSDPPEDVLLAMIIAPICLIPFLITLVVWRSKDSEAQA
CXCR4, sequence (P61073 whole entry): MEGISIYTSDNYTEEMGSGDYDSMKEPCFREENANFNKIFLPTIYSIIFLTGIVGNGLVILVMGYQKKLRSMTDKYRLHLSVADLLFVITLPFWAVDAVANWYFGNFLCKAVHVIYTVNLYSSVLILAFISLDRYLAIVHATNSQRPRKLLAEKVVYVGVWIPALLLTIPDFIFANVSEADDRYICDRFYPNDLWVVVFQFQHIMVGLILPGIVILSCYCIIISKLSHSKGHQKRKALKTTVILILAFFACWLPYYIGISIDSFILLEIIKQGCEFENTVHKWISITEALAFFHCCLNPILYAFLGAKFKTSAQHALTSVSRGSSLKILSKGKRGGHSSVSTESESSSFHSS
PROKR1, sequence (Q8TCW9 whole entry): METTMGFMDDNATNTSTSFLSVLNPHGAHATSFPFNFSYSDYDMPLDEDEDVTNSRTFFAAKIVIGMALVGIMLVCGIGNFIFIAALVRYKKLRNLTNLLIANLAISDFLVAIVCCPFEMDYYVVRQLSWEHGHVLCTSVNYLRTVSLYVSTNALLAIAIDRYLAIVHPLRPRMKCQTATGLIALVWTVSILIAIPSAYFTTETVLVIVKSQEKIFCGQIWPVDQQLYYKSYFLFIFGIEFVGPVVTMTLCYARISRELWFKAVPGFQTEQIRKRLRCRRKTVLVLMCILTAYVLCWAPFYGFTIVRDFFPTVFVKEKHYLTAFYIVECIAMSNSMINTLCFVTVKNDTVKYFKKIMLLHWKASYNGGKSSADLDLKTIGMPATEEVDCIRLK
MCHR1, sequence (Q99705 whole entry): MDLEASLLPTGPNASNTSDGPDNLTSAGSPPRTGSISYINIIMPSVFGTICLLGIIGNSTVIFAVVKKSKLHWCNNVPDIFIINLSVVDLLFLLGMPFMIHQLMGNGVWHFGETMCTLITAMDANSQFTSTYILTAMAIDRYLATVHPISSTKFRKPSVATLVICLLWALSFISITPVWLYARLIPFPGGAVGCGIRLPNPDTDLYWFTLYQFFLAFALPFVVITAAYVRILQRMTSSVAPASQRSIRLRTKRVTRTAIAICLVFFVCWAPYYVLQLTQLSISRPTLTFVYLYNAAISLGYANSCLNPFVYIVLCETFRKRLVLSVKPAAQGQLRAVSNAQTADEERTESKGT
SSTR5, sequence (P35346 whole entry): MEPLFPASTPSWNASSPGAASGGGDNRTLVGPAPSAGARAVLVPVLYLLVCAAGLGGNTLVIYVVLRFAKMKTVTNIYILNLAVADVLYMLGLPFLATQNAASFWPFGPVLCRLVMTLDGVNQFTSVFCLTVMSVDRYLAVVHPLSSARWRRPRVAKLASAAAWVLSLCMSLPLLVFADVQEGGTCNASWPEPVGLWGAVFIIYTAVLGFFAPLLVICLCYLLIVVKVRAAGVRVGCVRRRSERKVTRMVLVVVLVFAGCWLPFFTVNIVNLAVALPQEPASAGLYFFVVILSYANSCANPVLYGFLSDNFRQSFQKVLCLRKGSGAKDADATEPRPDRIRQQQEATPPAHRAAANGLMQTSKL
AVPR1A, sequence (P37288 whole entry): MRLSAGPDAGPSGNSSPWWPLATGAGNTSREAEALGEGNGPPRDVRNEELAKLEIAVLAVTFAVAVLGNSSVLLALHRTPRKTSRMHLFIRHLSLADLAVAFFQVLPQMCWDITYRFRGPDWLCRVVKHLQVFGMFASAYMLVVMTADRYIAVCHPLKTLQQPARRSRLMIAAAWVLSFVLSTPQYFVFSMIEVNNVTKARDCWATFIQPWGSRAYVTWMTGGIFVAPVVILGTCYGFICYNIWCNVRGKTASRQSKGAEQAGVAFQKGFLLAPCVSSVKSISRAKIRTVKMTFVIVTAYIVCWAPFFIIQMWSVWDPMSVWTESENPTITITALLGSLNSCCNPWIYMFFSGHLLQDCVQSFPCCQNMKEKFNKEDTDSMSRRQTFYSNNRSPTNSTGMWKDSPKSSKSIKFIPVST
HRH4, sequence (Q9H3N8 whole entry): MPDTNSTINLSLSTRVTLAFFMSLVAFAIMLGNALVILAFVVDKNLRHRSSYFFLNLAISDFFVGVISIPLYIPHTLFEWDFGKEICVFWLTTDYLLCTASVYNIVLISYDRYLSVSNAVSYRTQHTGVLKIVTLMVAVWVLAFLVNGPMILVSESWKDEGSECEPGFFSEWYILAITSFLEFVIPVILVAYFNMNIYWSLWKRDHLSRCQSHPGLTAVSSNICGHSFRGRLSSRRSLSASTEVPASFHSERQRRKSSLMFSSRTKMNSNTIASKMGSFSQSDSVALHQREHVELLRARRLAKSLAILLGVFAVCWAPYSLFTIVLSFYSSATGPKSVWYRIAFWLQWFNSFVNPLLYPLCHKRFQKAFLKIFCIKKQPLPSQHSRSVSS
OPRM1, sequence (P35372 whole entry): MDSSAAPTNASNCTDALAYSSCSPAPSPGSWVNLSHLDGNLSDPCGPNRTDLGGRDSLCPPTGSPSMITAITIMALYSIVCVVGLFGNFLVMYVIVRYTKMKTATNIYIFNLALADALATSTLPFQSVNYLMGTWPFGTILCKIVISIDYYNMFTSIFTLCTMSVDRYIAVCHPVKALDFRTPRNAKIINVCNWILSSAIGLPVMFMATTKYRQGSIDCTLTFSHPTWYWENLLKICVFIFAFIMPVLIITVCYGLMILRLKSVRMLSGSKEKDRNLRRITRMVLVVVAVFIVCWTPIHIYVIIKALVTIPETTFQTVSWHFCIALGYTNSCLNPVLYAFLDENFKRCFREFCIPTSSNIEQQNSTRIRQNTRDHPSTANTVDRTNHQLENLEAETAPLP
OXER1, sequence (Q8TDS5 whole entry): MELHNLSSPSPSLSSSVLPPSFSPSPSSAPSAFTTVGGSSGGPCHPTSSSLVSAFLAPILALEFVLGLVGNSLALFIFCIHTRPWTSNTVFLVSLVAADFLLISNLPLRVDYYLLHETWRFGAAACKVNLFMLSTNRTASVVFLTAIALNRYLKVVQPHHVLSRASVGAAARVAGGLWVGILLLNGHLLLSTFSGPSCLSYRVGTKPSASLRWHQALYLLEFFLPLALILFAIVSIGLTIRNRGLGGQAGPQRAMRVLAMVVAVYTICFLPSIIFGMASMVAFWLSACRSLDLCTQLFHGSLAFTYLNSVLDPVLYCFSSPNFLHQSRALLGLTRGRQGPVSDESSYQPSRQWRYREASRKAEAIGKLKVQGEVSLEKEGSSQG

B1: octadecaneuropeptide (ODN) (peptide)
peptide: QATVGDVNTDRPGLLDLK
modifications: also: synthesised on Rink amide resin, C-terminal amide not given here outright
- % Activity, arrestin, antagonist mode, 2.5 uM (CXCR4): -28.5%
- % Activity, arrestin, antagonist mode, 2.5 uM (AVPR1A): -2.4%
- % Activity, arrestin, antagonist mode, 2.5 uM (CALCRL-RAMP2): -11.6%
- % Activity, arrestin, antagonist mode, 2.5 uM (HRH4): 5.2%
- % Activity, arrestin, antagonist mode, 2.5 uM (MCHR1): 5.1%
- % Activity, arrestin, antagonist mode, 2.5 uM (OXTR): 1.3%
- % Activity, arrestin, antagonist mode, 2.5 uM (SSTR5): -17.3%
- % Activity, arrestin, antagonist mode, 2.5 uM (OXER1): -39.7%
- % Activity, arrestin, antagonist mode, 2.5 uM (GCGR): -17.2%
- % Activity, arrestin, antagonist mode, 2.5 uM (NMU1R): -34.2%
- % Activity, arrestin, antagonist mode, 2.5 uM (OPRM1): -21.1%
- % Activity, arrestin, antagonist mode, 2.5 uM (CRHR1): 5.4%
- % Activity, arrestin, antagonist mode, 2.5 uM (EDNRB): -9.9%
- % Activity, arrestin, antagonist mode, 2.5 uM (PROKR1): -12.4%
- % Activity, arrestin, antagonist mode, 2.5 uM (ADRA2A): -27.2%
